Reference: patent publication US20110178027A1

target: PC4 (UniProt Q6UW60); test: enzyme inhibition
Sequence (Q6UW60 114-708): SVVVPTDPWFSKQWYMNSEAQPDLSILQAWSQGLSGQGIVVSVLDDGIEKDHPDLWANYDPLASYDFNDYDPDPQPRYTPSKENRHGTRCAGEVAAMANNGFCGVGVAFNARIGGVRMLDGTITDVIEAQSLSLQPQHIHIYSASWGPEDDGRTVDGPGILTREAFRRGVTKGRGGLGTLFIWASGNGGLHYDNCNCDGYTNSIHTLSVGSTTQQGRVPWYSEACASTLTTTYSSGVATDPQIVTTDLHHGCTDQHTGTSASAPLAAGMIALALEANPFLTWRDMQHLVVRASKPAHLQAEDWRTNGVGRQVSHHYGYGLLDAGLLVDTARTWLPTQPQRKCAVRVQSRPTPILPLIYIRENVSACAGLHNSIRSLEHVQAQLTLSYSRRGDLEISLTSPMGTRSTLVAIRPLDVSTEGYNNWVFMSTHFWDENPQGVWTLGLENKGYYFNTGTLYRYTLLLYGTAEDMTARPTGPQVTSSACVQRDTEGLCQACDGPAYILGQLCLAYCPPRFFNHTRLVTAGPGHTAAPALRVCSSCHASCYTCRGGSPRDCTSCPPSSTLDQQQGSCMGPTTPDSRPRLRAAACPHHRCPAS

Row | Substance | Ki [nM]
1 | LLRVKR-NH2 | 330
2 | LRVKR-NH2 | 630
3 | LLLRVKR-NH2 | 730
4 | RVKR-NH2 | 20800
